# In EP2225268B1:
# Assays:
# [1] = molecular target: Wild-type recombinant human NGAL monomer expressed in CHO cells (human) (UniProt P80188); assay: … sandwich CMIA, capture HYB 211-01, detection acridinium-HYB 211-02; NGAL 600 ng/mL
# [2] = molecular target: Wild-type recombinant human NGAL dimer calibrators treated with DTT (human) (UniProt P80188); assay: as above
# [3] = molecular target: Wild-type recombinant human NGAL dimer expressed in CHO cells (human) (UniProt P80188); assay: as above
# [4] = molecular target: Native NGAL purchased from Diagnostics Development (Uppsala, Sweden), non-reduced (UniProt P80188); assay: as above
# [5] = molecular target: Wild-type recombinant human NGAL monomer expressed in CHO cells (human) (UniProt P80188); assay: … sandwich CMIA, capture HYB 211-01, detection acridinium-HYB 211-02; NGAL 1000 ng/mL
# [6] = molecular target: Wild-type recombinant human NGAL dimer calibrators treated with DTT (human) (UniProt P80188); assay: as above
# [7] = molecular target: Wild-type recombinant human NGAL dimer expressed in CHO cells (human) (UniProt P80188); assay: as above
# [8] = molecular target: Native NGAL purchased from Diagnostics Development (Uppsala, Sweden), non-reduced (UniProt P80188); assay: as above
# [9] = molecular target: Wild-type recombinant human NGAL monomer expressed in CHO cells (human) (UniProt P80188); assay: … sandwich CMIA, capture HYB 211-01, detection acridinium-HYB 211-02; calibrator C, NGAL 50 ng/mL
# [10] = molecular target: Wild-type recombinant human NGAL dimer calibrators treated with DTT (human) (UniProt P80188); assay: as above
# [11] = molecular target: Wild-type recombinant human NGAL dimer expressed in CHO cells (human) (UniProt P80188); assay: as above
# [12] = molecular target: Wild-type recombinant human NGAL monomer expressed in CHO cells (human) (UniProt P80188); assay: … sandwich CMIA, capture HYB 211-01, detection acridinium-HYB 211-02; curve fit with monomer calibrators; target 600 ng/mL
# [13] = molecular target: Wild-type recombinant human NGAL dimer calibrators treated with DTT (human) (UniProt P80188); assay: as above
# [14] = molecular target: Wild-type recombinant human NGAL dimer expressed in CHO cells (human) (UniProt P80188); assay: as above
# [15] = molecular target: Wild-type recombinant human NGAL monomer expressed in CHO cells (human) (UniProt P80188); assay: … sandwich CMIA, capture HYB 211-01, detection acridinium-HYB 211-02; NGAL 50 ng/mL
# [16] = molecular target: Wild-type recombinant human NGAL dimer calibrators treated with DTT (human) (UniProt P80188); assay: as above
# [17] = molecular target: Wild-type recombinant human NGAL dimer expressed in CHO cells (human) (UniProt P80188); assay: as above
# [18] = molecular target: Native NGAL purchased from Diagnostics Development (Uppsala, Sweden), non-reduced (UniProt P80188); assay: as above
# [19] = molecular target: Native NGAL (plus DTT - reduced) (UniProt P80188); assay: … sandwich CMIA, capture HYB 211-01, detection acridinium-HYB 211-02; same sample reduced with DTT
# [20] = molecular target: Wild-type recombinant human NGAL dimer calibrators treated with DTT (human) (UniProt P80188); assay: … sandwich CMIA, capture HYB 211-01, detection acridinium-HYB 211-02; DTT-treated dimer calibrators against untreated dimer calibrators
# [21] = molecular target: Wild-type recombinant human NGAL dimer calibrators with TCEP in the reaction mixture (human) (UniProt P80188); assay: … sandwich CMIA, capture 1-2322-455, detection acridinium-1-903-430; TCEP in reaction; NGAL 50 ng/mL
# [22] = molecular target: Wild-type recombinant human NGAL dimer calibrators with TCEP in the reaction mixture (human) (UniProt P80188); assay: … sandwich CMIA, capture 1-2322-455, detection acridinium-1-903-430; TCEP in reaction; NGAL 600 ng/mL
# [23] = molecular target: Wild-type recombinant human NGAL monomer expressed in CHO cells (human) (UniProt P80188); assay: … sandwich CMIA, capture 1-2322-455, detection acridinium-1-903-430; NGAL 50 ng/mL
# [24] = molecular target: Wild-type recombinant human NGAL dimer expressed in CHO cells (human) (UniProt P80188); assay: as above
# [25] = molecular target: Wild-type recombinant human NGAL monomer expressed in CHO cells (human) (UniProt P80188); assay: … sandwich CMIA, capture 1-2322-455, detection acridinium-1-903-430; monomer calibrator plus TCEP; curve fit with monomer calibrators; target 250 ng/mL
# [26] = molecular target: Wild-type recombinant human NGAL dimer calibrators with TCEP in the reaction mixture (human) (UniProt P80188); assay: … sandwich CMIA, capture 1-2322-455, detection acridinium-1-903-430; TCEP in reaction; curve fit with monomer calibrators; target 1000 ng/mL
molecule,measurement,setting,value
"anti-NGAL antibody HYB 211-01 from AntibodyShop A/S, Gentofte, Denmark",RLUs,[1],691000 RLUs
same,RLUs,[2],676000 RLUs
same,RLUs,[3],282000 RLUs
same,RLUs,[4],1.07e+06 RLUs
same,RLUs,[5],885000 RLUs
same,RLUs,[6],855000 RLUs
same,RLUs,[7],390000 RLUs
same,RLUs,[8],1.32e+06 RLUs
same,RLUs,[9],101000 RLUs
same,RLUs,[10],101000 RLUs
same,RLUs,[11],31500 RLUs
same,Curve Fit Results,[12],598 ng/mL
same,Curve Fit Results,[13],574 ng/mL
same,Curve Fit Results,[14],161 ng/mL
same,RLUs,[15],101000 RLUs
same,RLUs,[16],101000 RLUs
same,RLUs,[17],31500 RLUs
same,RLUs,[18],151000 RLUs
same,NGAL concentration detected,[19],23.8 ng/mL
same,average % increase of NGAL concentration after reduction of dimers,[20],248%
"antibody produced by murine hybridoma cell line 1-2322-455 having ATCC Accession No. PTA-8024 (antibody, V domains shown) VH: EVQLVESGGGLVQPGGSLKLSCAASGFTFNNYYMSWVRQTPERRLEWVAYISSSGGSTYYSDSVRGRFTISRDTARNTLYLQMTSLKSEDTAMYYCARHFGDYSYFDYWGQGTTLTVSS VL: DIQMTQSPASLSASVGETVTITCRASENFYSYLAWYQQKQGKSPQLLVYNAKTLAEGVPSRFSGSGSGTQFSLKINSLQPEDFGTYYCQHHYDIPLTFGAGTKLELKR",RLUs,[21],132000 RLUs
same,RLUs,[22],989000 RLUs
same,RLUs,[23],240000 RLUs
same,RLUs,[24],76800 RLUs
same,Curve Fit Results,[25],266 ng/mL
same,Curve Fit Results,[26],497 ng/mL
